Source: publication doi:10.1101/2025.04.11.648320 (bioRxiv, 2025)
Several values for one entry are separate records, joined by “and”; a condition that tells them apart may be missing. Equal values may be shown once.

Biological target: the molecule itself
Assay: SDS-PAGE with immunoblot

B1: HIR2-HA expressed in Nicotiana benthamiana (natural protein, Arabidopsis thaliana, UniProt Q9SRH6 1-285, looked up)
chain: MGNLFCCVLVKQSDVAVKERFGKFQKVLNPGLQFVPWVIGDYVAGTLTLRLQQLDVQCETKTKDNVFVTVVASIQYRVLADKASDAFYRLSNPTTQIKAYVFDVIRACVPKLNLDDVFEQKNEIAKSVEEELDKAMTAYGYEILQTLIIDIEPDQQVKRAMNEINAAARMRVAASEKAEAEKIIQIKRAEGEAESKYLSGLGIARQRQAIVDGLRDSVLGFAGNVPGTSAKDVLDMVMMTQYFDTMRDIGATSKSSAVFIPHGPGAVSDVAAQIRNGLLQANNAS
stoichiometry N: 2 and 4 and 6
